Data taken from doi:10.1101/2025.01.13.632879 (bioRxiv, 2025).

Molecular target: the molecule itself
Assay: SEC; affinity-purified protein alone; Superdex 200 Increase 10/300 GL, 100 uL of 10 mg/mL, 0.2 mL/min; 200 mM NaCl, 10 mM Tris HCl pH 7.5, 5% glycerol, 1 mM DTT; monomer and dimer peaks

B1: Escherichia coli LolA P65T (natural protein, UniProt P61316 22-203, looked up)
chain: DAASDLKSRLDKVSSFHASFTQKVTDGSGAAVQEGQGDLWVKRTNLFNWHMTQPDESILVSDGKTLWFYNPFVEQATATWLKDATGNTPFMLIARNQSSDWQQYNIKQNGDDFVLTPKASNGNLKQFTINVGRDGTIHQFSAVEQDDQRSSYQLKSQQNGAVDAAKFTFTPPQGVTVDDQRK
notes: LolA of Escherichia coli; source: E. coli BL21(DE3), purified (Ni-NTA, SEC)
  stoichiometry N: 2
